What all share (experiment): cell-based or functional assay
Assay [1] deals with HLA-DR of the DR^str donor (HLA-DRB1 variant bound strongly by MVR), on B cells, T cells and EBV LCLs (human).
For assay [2], the target named is HLA-DR of the DR^int donor (HLA-DRB1 variant bound with intermediate affinity by MVR), on B cells and T cells (human).
The target in assay [3] is HLA-DR of the DR^weak donor (HLA-DRB1 variant bound weakly by MVR), on B cells, T cells and EBV LCLs (human).

Where “and” joins values, the source holds several entries; their conditions need not be identical. Identical values can stand only once.

B1: MVR CAR (second-generation HLA-DR CAR, FLAG-tagged, from pELPS-FLAGMVRBBz, expressed on T cells or EBV LCLs) (protein)
chain: DYKDDDDKDIQMTQSSSYLSVSLGGRVTITCKASDHINNWLAWYQQKPGNAPRLLISGATSLETGVPSRFSGSGSGKDYTLSITSLQTEDVATYYCQQYWSTPFTFGSGTKLEIKGGGGSGGGGSGGGGSQVQLKESGPGLVAPSQSLSITSTVSGFSLSRYSVHWVRQPPGKGLEWLGMIWGGGSTDYNSALKSRLSISKDNSKSQVFLKMNSLQTDDTAMYYCARNEGDTTAGTWFAYWGQGTLVTVSSTTTPAPRPPTPAPTIASQPLSLRPEACRPAAGGAVHTRGLDFACDIYIWAPLAGTCGVLLLSLVITLYCKRGRKKLLYIFKQPFMRPVQTTQEEDGCSCRFPEEEEGGCELRVKFSRSADAPAYKQGQNQLYNELNLGRREEYDVLDKRRGRDPEMGGKPRRKNPQEGLYNELQKDKMAEAYSEIGMKGERRRGKGHDGLYQGLSTATKDTYDALHMQALPPR
Take B1: in assay [1], the frequency of CD4+ MVR-CAR T cells with two or more polyfunctional markers after co-culture with DR^str-EBV-LCLs was found to be 71.3%; the frequency of CD8+ MVR-CAR T cells with two or more polyfunctional markers after co-culture with DR^str-EBV-LCLs stood at 29.4%; the granule influx into DR^str B cells and DR^str EBV LCLs relative to CD19 CAR T cells is 2 fold and 4 fold; the granule transfer rate to DR^str-EBV-LCLs relative to DR^weak-EBV-LCLs lay within 2 to 3 times higher. The molecule further yielded a frequency of CAR T cells with two or more exhaustion markers (LAG-3, Tim-3, CTLA-4, PD-1) in assay [2] of 65.8%. In assay [3], this molecule came in with a frequency of CAR T cells with two or more exhaustion markers of 9.2%, a frequency of CD4+ MVR-CAR T cells with two or more polyfunctional markers after co-culture with DR^weak-EBV-LCLs of 31.6%, a frequency of CD8+ MVR-CAR T cells with two or more polyfunctional markers after co-culture with DR^weak-EBV-LCLs of 26.3% and a frequency of Tim-3 expressing CAR T cells of 60.7%. The molecule further gave a surface CAR expression (MFI) relative to CD19 CAR T cells in assay [3] of 2 fold lower.

For the origin of these results see patent US20200165342A1.
